From patent US12110325B2, “TM4SF5-targeting humanized antibody and use thereof” (KOREA RESEARCH INSTITUTE OF BIOSCIENCE AND BIOTECHNOLOGY, priority 2022, dated 2024)

T1: TM4SF5 (Homo sapiens, UniProt O14894)
T1 construct: expressed in transfected cells; SNU449Cp (TM4SF5-low control)
T1 sequence (O14894 1-197): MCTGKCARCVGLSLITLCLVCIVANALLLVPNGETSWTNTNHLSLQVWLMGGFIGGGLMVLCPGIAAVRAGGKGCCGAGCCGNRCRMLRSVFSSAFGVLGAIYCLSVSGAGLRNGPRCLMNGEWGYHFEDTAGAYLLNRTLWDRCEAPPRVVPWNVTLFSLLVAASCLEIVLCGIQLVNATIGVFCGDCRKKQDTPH

B1: Ab27-hz9: humanized monoclonal antibody of Ab27; VH SEQ ID NO: 7, VL SEQ ID NO: 8; IGHV1-2 and IGKV3-20 frameworks (antibody, V domains shown)
VH: QVQLVQSGAEVKKPGASVKVSCKASGYTFTDYEMHWVRQAPGQGLEWMGAIDPETGGTAYNQKFKGRVTMTADKSISTAYMELSRLRSDDTAVYYCARPYLGYWGQGTLVTVSS
VL: EIVLTQSPGTLSLSPGERATLSCRSSQSLVHSNGNTYLHWYQQKPGQAPRLLIYKVSNRFSGIPDRFSGSGSGTDFTLTISRLEPEDFAVYYCFQGSHIPLTFGQGTKVEIK
modifications: VH; VL
notes: humanized monoclonal antibody of Ab27; IGHV1-2 and IGKV3-20 frameworks

What was measured:
SNU449T7 cells [1] = experiment: Combination treatment in SNU449T7 xenograft mouse model; assay type: in vivo; conditions: for inhibited tumor growth relative to the control: Ab27 270, sorafenib 1,200, doxorubicin 20 μg/mouse/dose i.p. twice per week, 6 times in total, alone or combined
Method: For combination treatment, SNU449T7 (1×10^6) cells were subcutaneously injected into the mice. When volumes reached about 100 mm^3, the tumor-bearing mice were randomized into control and treatment groups (n=6 per group). Ab27 (270 μg/mouse), sorafenib (1,200 μg/mouse), or doxorubicin (20 μg/mouse) was intraperitoneally (i.p.) injected twice per week (6 times in total). For the combination treatment group, Ab27 and sorafenib or doxorubicin were intraperitoneally (i.p.) injected at 6-hour intervals. Sorafenib was dissolved in DMSO/Cremophor EL/PBS (1:1:8).
(§1) Body weight and tumor volume were measured before injection of the antibody or drug. Tumor volumes were calculated using the formula width^2×length/2). Tumor masses were lysed as described in the literature for immunoblot analysis (J Clin Invest, 2008. 118 (4): pp. 1354-66) or tumor masses were fixed in 10% formalin and embedded in paraffin.
SNU449T7 (1×10^6) cells were mixed with Matrigel and subcutaneously injected into the back, and then Ab27 (270 μg/mouse/dose); sorafenib (1,200 μg/mouse/dose); doxorubicin (20 μg/mouse/dose); a combination of Ab27 (270 μg/mouse/dose) and sorafenib (1,200 μg/mouse/dose) or a combination of doxorubicin (20 μg/mouse/dose); or saline (control) were intraperitoneally injected twice per week (6 times in total) into nude mice (n=6 per group) bearing SNU449T7 xenografts.

[2] = test system: sorafenib-resistant SNU449T7 cells; experiment: Sorafenib-resistant SNU449T7 cell xenograft model; assay type: in vivo, mouse
Method: SNU449T7 cells were treated with sorafenib (1 μM to 10 μM) for 2 weeks, and the surviving cells (sorafenib-resistant SNU449T7; 1×10^6 cells) were mixed with Matrigel on ice and then injected subcutaneously into the backs of the mice. After 11 days, when tumor volumes reached about 100 mm^3, the tumor-bearing mice were randomized into control and treatment groups (n=7 per group). Ab27 (250 μg/mouse) or sorafenib (400 μg/mouse) was intraperitoneally (i.p.) injected at 2- or 3-day intervals for 2 or 3 weeks (8 times in total).
as §1
The antitumor activity of Ab27 was evaluated in a sorafenib-resistant SNU449T7 cell xenograft model. TM4SF5-overexpressing SNU449T7 cells were treated with sorafenib (1 μM to 10 μM; 3 culture medium changes per week) for 3 weeks, and the surviving sorafenib-resistant cells (1×10^6) were mixed with Matrigel and then subcutaneously injected into the flanks of the nude mice. Ab27 (250 μg/mouse) or sorafenib (400 μg/mouse) was injected at 2- or 3-day intervals (8 times in total).

SNU-398 cells = experiment: SNU-398 liver cancer xenograft (endogenous TM4SF5); assay type: in vivo; conditions: Ab27 300, cetuximab 300 or sorafenib 600 μg/mouse/dose
Method: as §1
(§2) Formalin-fixed and paraffin-embedded 6-μm-thick tissue sections from xenograft tumors were processed for immunohistochemistry analysis as per the standard protocol. Sections were stained with anti-Ki67 antibody (SP6; Abcam) using the peroxidase technique. The proliferative index (%) was determined by calculating the number of Ki67^+ cells relative to the total number of cells, which consisted of at least 1,000 cells per field. Five randomly selected fields from tumor sections per mouse were analyzed using ImageJ software.

TM4SF5 [3] = target: T1, TM4SF5; experiment: Flow cytometry of SNU449Cp and SNU449Tp cells; assay type: cell-based
Method: To analyze antibody binding to TM4SF5, flow cytometry was performed using SNU449Cp, SNU449Tp, HEK293E, and CT26 cells. HCT-116, SNU-398, HT-29, C8161, and SNU-638 cells that had been transiently transfected with either a TM4SF5-specific siRNA or a negative control siRNA were also analyzed. Cells (2×10^5) were incubated with Ab27 or Ab27-hz9 at 0.03 μg to 0.3 μg at 4° C. for 45 minutes in 100 μL PBS containing 1% BSA. The cells were washed twice with 1% BSA/PBS, followed by a 30-minute incubation with fluorescein isothiocyanate (FITC)-conjugated anti-human IgG (Fc-specific; Pierce, Rockford, Ill., USA). Viable propidium iodide (PI)^− cells were analyzed for antibody binding using FACSCalibur (BD Immunocytometry System, San Jose, Calif., USA). To generate hemagglutinin (HA)-tagged mouse TM4SF5-expression vector, mouse TM4SF5 cDNA (Accession No. NM_029360.3) was subcloned into pCMV-HA-N vector (Clonetech, Mountain View, Calif.). PC3 cells transiently transfected with HA-tagged mouse TM4SF5-expression vector were incubated with Ab27 and anti-HA, and then analyzed by flow cytometry.

TM4SF5 [4] = target: T1, TM4SF5; experiment: Immunocytochemistry of SNU449Cp and SNU449Tp cells; assay type: cell-based; conditions: SNU449Tp versus SNU449Cp; Ab27-hz9 with a stronger level
Method: SNU-449Cp, SNU-449Tp, and HepG2 and HT-29 cells that had been transiently transfected with TM4SF5-specific siRNA were plated on coverslips and incubated for 48 hours. The cells were then fixed for 20 minutes in methanol and permeabilized with acetone for 1 minute. After blocking in 1% normal horse serum, the cells were incubated with Ab27 or Ab27-hz9 ([…]), followed by a corresponding secondary antibody conjugated to FITC. The cells were counterstained with 4,6-diamidino-2-phenylindole (DAPI; Sigma) to visualize nuclei. Immunofluorescent images were acquired under a confocal microscope (LSM 510 META, Carl Zeiss, Jena, Germany).

TM4SF5 [5] = target: T1, TM4SF5; experiment: Internalization analysis of SNU449Tp cells by flow cytometry; assay type: cell-based; conditions: Ab27 0.3 μg/mL, Ab27-hz9 0.2 μg/mL
Method: Cell-surface binding and subsequent internalization of Ab27 and Ab27-hz9 were analyzed using flow cytometry. Briefly, cells were incubated with Ab27 or Ab27-hz9 at 4° C. for 45 minutes, washed to remove unbound antibodies, and then either warmed to 37° C. to allow internalization or maintained at 4° C. Cells were transferred to ice-cold buffer to stop the occurrence of internalization and stained with FITC-conjugated anti-human IgG. PI^− cells were analyzed by flow cytometry. The relative levels of Ab27 or Ab27-hz9 bound to the cell surface were calculated as the shift in the fluorescence signal of the antibody occupancy relative to that detected at the beginning of the internalization period.
For the internalization analysis of SNU449Tp cells with Ab27 and Ab27-hz9, Ab27 (0.3 μg/mL) and Ab27-hz9 (0.2 μg/mL) were used to maintain a similar extent of initial antibody binding to TM4SF5.

SNU449T7 cells [6] = experiment: SNU449T7 liver cancer xenograft, Ab27-hz9 versus Ab27 and cetuximab; assay type: in vivo, mouse
Method: SNU449T7 (1×10^7) cells were subcutaneously injected into the flanks of mice. When volumes reached about 100 mm^3, the tumor-bearing mice were randomized into control and treatment groups (n=6 per group). […] Normal human IgG was injected as a negative control.
as §1, §2
The antitumor efficacy of Ab27-hz9 was evaluated in the SNU449T7 xenograft model. SNU449T7 cells (3×10^6) were subcutaneously injected into the flanks of mice.

[7] = test system: SNU449Tp cell-derived tumors; experiment: In vivo tumor targeting, DyLight 755-labeled antibody, SNU449T7 xenograft; design: species or system mouse; conditions: DyLight 755 label, 96 hours after injection; control IgG mostly in the liver
Method: (§3) Ab27, Ab27-hz9, and normal human IgG were conjugated with DyLight 755 and purified using a DyLight 755 Antibody Labeling Kit (Thermo Scientific) according to the manufacturer's instructions. When the size of the tumor formed by SNU449T7 or SNU-398 cell reached about 100 mm^3, 70 μg of dye-labeled antibody was injected into the tail vein of nude mice. The distribution profiles of the antibody were quantified by in vivo fluorescence using IVIS imaging system at 0, 24, 48, 72, and 96 hours after antibody injection. The tumor was removed at 96 hours after injection to determine the distribution of the DyLight755-labeled antibody in tumor tissues.
In order to validate the tumor-targeting ability of anti-TM4SF5 antibodies, the distributions of Ab27 and Ab27-hz9 after injection into SNU449Tp xenograft model were determined. SNU449T7 cells were subcutaneously injected into the flanks of the nude mice so as to prepare mice bearing tumors. Ab27, Ab27-hz9, and control human IgG were labeled with a fluorescent dye (DyLight 755) and […] injected into nude mice bearing SNU449Tp cell-derived tumors. After 96 hours, the distribution of the dye-labeled antibody was quantified by measuring the total photon flux of the fluorescence.

[8] = test system: endogenous TM4SF5-expressing tumors; experiment: In vivo tumor targeting, DyLight 755-labeled antibody, SNU-398 xenograft; design: species or system mouse; conditions: DyLight 755 label, tail vein, 96 hours; control IgG mostly in the liver
Method: as §3
Additionally, in vivo tumor targeting of Ab27 and Ab27-hz9 were examined using a SNU-398 xenograft mouse model. To confirm in vivo tumor targeting of Ab27 and Ab27-hz9 in endogenous TM4SF5-expressing liver cancer xenografts, SNU-398 cells were subcutaneously injected into the flanks of the nude mice so as to prepare mice bearing tumors. Ab27, Ab27-hz9, and control human IgG were labeled with DyLight 755 were injected into the tail veil of tumor-bearing mice, and fluorescence was measured after 96 hours.

Molecule | inhibited tumor growth relative to the control (SNU449T7 cells [1]) [%] | immunoblot of xenograft tumor tissues: phosphorylation of FAK, c-Src, p27Kip1, STAT3 and expression of BMI1 ([2]; Ab27 250 μg/mouse or sorafenib 400 μg/mouse) | tumor growth (in words) ([2]; sorafenib 400 μg/mouse/dose, 8 times in total) | Ki67 proliferation index of tumor sections (SNU-398 cells) | inhibited tumor growth (tumor volume) (SNU-398 cells; 6 times in total, normal human IgG control) [%] | phosphorylation of STAT3 in tumor lysates (SNU449T7 cells [1]; sorafenib 1,200 μg/mouse/dose) | binding to SNU449Tp (high-TM4SF5) versus SNU449Cp (TM4SF5-low) cells (TM4SF5 [3]) | immunofluorescence staining of membrane edges (TM4SF5 [4]) | residual level of cell surface-bound antibody (TM4SF5 [5]) | level of proliferative Ki67+ cells in tumor sections versus control mice (SNU449T7 cells [6]; 300 μg/mouse/dose) | inhibited tumor growth (tumor volume) (SNU449T7 cells [6]; 300 μg/mouse/dose i.p. 3 or 4 times per week, 12 times in total, normal human IgG control) | body weight (SNU449T7 cells [6]; 300 μg/mouse/dose, 12 times in total) | distribution of dye-labeled antibody (total photon flux) [7] | distribution of dye-labeled antibody (fluorescence) [8]
COc1cccc2c1C(=O)c1c(O)c3c(c(O)c1C2=O)C[C@@](O)(C(=O)CO)C[C@@H]3O[C@H]1C[C@H](N)[C@H](O)[C@H](C)O1 [doxorubicin] | 26 |  |  |  |  |  |  |  |  |  |  |  |  | 
CNC(=O)c1cc(Oc2ccc(NC(=O)Nc3ccc(Cl)c(C(F)(F)F)c3)cc2)ccn1 [sorafenib] | 42 | relatively moderately decreased the phosphorylation of FAK, c-Src, p27^KiP1, and STAT3 | did not remarkably decrease tumor growth | significantly decreased | 51 | abolished the phosphorylation of STAT3 |  |  |  |  |  |  |  | 
B1 |  |  |  |  |  |  | bound more efficiently to SNU449Tp cells than to SNU449Cp cells | stained the membrane edges of SNU449Tp cells, but not those of SNU449Cp cells | significantly reduced | significantly lower | about 66% | without affecting body weight | predominantly localized to the tumors | substantially localized in endogenous TM4SF5-expressing tumors
